The values that follow come from patent publication US20110097323A1 (published 2011).

For one experiment, the target named is T1, HER-2 (UniProt P04626 23-652, limits assumed).
T1 construct: also called HER2/neu; erbB-2
Briefly: SPR (BIAcore 1000), HER-2 amine-coupled to chip, antibody injected at 6.25-200 nM. The method, then: The kinetic parameters of the binding of eluted and purified antibodies were analyzed using a BIAcore assay (BIAcore instrument 1000, BIAcore Inc., Piscataway, N.J.) and associated software. HER-2 was immobilized on one of the four flow cells (flow cell 2) of a sensor chip surface through amine coupling chemistry (by modification of carboxymethyl groups with mixture of NHS/EDC) such that about 1000 response units (RU) of receptor was immobilized on the surface. Following this, the unreacted active esters were “capped off” with an injection of 1M Et-NH2.
Background: Surface plasmon resonance follows binding to a sensor surface in real time, without labels.

The next experiment has as its target human CD16A (FcγRIII-A) (human, UniProt P08637 17-208, limits assumed). Briefly: method not stated; reference not named (Fc-optimized against wild-type).
Another experiment concerns the target T2, CD32B (FcγRII-B) (UniProt P31994 43-217, limits assumed).
T2 construct: No species or construct stated
T2 sequence (looked up): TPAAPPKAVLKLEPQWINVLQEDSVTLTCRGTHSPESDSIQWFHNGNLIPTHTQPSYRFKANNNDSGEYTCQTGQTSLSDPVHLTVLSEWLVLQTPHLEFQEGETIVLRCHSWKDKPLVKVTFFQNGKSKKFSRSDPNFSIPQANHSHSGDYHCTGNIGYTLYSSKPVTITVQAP
Briefly: Table 3; relative to wild-type Fc; method not stated.

The next experiment concerns the target CD16A V158 (human, UniProt P08637 17-208, limits assumed). The description is as above.
For a further experiment, the target named is CD16A F158 (human, UniProt P08637 17-208, limits assumed). The description is as above.
Sequence of CD16A F158 (P08637 17-208 limits assumed): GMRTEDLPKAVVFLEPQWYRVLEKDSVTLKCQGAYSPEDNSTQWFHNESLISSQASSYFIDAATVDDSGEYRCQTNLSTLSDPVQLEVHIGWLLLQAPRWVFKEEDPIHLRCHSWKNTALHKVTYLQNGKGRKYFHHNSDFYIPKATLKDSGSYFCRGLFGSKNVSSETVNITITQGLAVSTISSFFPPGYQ

Positions count from the first letter of the chain named. In names and notes the source's numbering stands.

Sequence of CD16A V158 (P08637 17-208 F176V limits assumed): as the sequence (P08637 17-208 limits assumed) above, with F160V counted along it
Sequence of human CD16A (FcγRIII-A) (P08637 17-208 limits assumed): as the sequence (P08637 17-208 limits assumed) above

B1: ch4D5-wild-type Fc (antibody, human IgG1, kappa)
heavy: not shown
light: DIVMTQSHKFMSTSVGDRVSITCKASQDVNTAVAWYQQKPGHSPKLLIYSASFRYTGVPDRFTGSRSGTDFTFTISSVQAEDLAVYYCQQHYTTPPTFGGGTKVEIKRTVAAPSVFIFPPSDEQLKSGTASVVCLLNNFYPREAKVQWKVDNALQSGNSQESVTEQDSKDSTYSLSSTLTLSKADYEKHKVYACEVTHQGLSSPVTKSFNRGEC
notes: Chimeric 4D5 antibody; wild-type Fc; also called ch4D5-FcWT; ch4D5-FcWT (wild-type Fc)
As for B1, in the experiment with HER-2, the koff was roughly 3.2e-07 s⁻¹ and the kon was determined as 170000 M⁻¹ s⁻¹.

B2: ch4D5-FcMT1 (antibody, human IgG1, kappa)
heavy: QVQLQQSGPELVKPGASLKLSCTASGFNIKDTYIHWVKQRPEQGLEWIGRIYPTNGYTRYDPKFQDKATITADTSSNTAYLQVSRLTSEDTAVYYCSRWGGDGFYAMDYWGQGASVTVSSASTKGPSVFPLAPSSKSTSGGTAALGCLVKDYFPEPVTVSWNSGALTSGVHTFPAVLQSSGLYSLSSVVTVPSSSLGTQTYICNVNHKPSNTKVDKRVEPKSCDKTHTCPPCPAPELLGGPSVFLLPPKPKDTLMISRTPEVTCVVVDVSHEDPEVKFNWYVDGVEVHNAKTKPPEEQYNSTLRVVSILTVLHQDWLNGKEYKCKVSNKALPAPIEKTISKAKGQPREPQVYTLPPSRDELTKNQVSLTCLVKGFYPSDIAVEWESNGQPENNYKTTPLVLDSDGSFFLYSKLTVDKSRWQQGNVFSCSVMHEALHNHYTQKSLSLSPGK
light: B1 light
With B2, the “fold increase in binding” value with human CD16A (FcγRIII-A) was 10 fold.

B3: Fc variant R255L D270E P396L (other, UniProt P01857-1 99-330, looked up, name in EU numbering)
chain: EPKSCDKTHTCPPCPAPELLGGPSVFLFPPKPKDTLMISLTPEVTCVVVDVSHEEPEVKFNWYVDGVEVHNAKTKPREEQYNSTYRVVSVLTVLHQDWLNGKEYKCKVSNKALPAPIEKTISKAKGQPREPQVYTLPPSRDELTKNQVSLTCLVKGFYPSDIAVEWESNGQPENNYKTTPLVLDSDGSFFLYSKLTVDKSRWQQGNVFSCSVMHEALHNHYTQKSLSLSPGK
notes: domain: Fc region; positions are EU index
Turning to B3, the “binding relative to wild-type Fc (fold)” value with CD32B (FcγRII-B) amounted to 0.87; with CD16A V158, 1.34; in the experiment with CD16A F158 it was 1.65.

B4: Fc variant R292P V305I P396L (other, UniProt P01857-1 99-330, looked up, name in EU numbering)
chain: B3 chain with L40R, E55D, R77P, V90I
notes: as for B3
As for B4, the “binding relative to wild-type Fc (fold)” value was found to be 0.92 with CD32B (FcγRII-B), 1.85 with CD16A V158 and 1.9 in the experiment with CD16A F158.

B5: Fc variant R255L D270E Y300L P396L (other, UniProt P01857-1 99-330, looked up, name in EU numbering)
chain: B3 chain with Y85L
notes: as for B3
Consider B5, for which the “binding relative to wild-type Fc (fold)” value in the experiment with CD32B (FcγRII-B) came to 0.87; with CD16A V158 it was 1.52; with CD16A F158, 1.74.

As a reminder, the koff is a measure of how fast the partners let go of each other. As usually defined, the kon is the second-order rate constant of association. A high value points to faster complex formation.
